Results published in patent US20050276800A1 (MEDICAL RESEARCH COUNCIL, published 2005).

Tests used:
[1] = target: T1, LexA DBD (made from the empty pBTM 116 vector) (UniProt P0A7C2 1-202, limits assumed); test: yeast two-hybrid (His growth, β-gal); data not shown
T1 construct: domain: LexA DBD; Bait-only control in the yeast two-hybrid assay
T1 sequence (looked up): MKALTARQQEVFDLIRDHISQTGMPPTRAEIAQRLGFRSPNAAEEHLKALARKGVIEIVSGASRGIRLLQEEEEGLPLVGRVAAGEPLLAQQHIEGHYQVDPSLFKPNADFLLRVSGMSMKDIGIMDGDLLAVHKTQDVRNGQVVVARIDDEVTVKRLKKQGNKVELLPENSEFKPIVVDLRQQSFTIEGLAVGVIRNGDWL

[2] = target: T2, Recombinant oncogenic HRAS (G12V; residues 1-166) (human, UniProt P01112 1-166); test: surface plasmon resonance (BIAcore 2000), HRASG12V-GppNp immobilised at about 1500 RU, purified scFv injected
T2 construct: range 1-166; ELISA and BIAcore: purified from bacteria and loaded with GppNp, a non-hydrolysable GTP analogue; Mammalian two-hybrid: codons 1-166 fused C-terminal to the GAL4 DBD (pM1-RASG12V); Yeast two-hybrid: truncated HRASG12V fused to the LexA DBD (pBTM116-RASG12V); The DBD parts are not written into the chain; also called HaRASG12V; Ha-RASG12V

[3] = target: T2, Recombinant oncogenic HRAS (G12V; …); test: SPR (BIAcore 2000); HRASG12V-GppNp immobilised on CM5 chip, purified scFv as analyte; BIAcore, purified bacterial scFv in vitro; weak micromolar binding

B1: anti-RAS scFv I21 (scFv)
scFv: EVQLLESGGGLVQPGGSLRLSCAASGFTFSSYAMSWVRQAPGKGLEWVSTISYGGSNTNYADSVKARFTISRDNSKNTLYLQMNSLRAEDTAVYYCAKGNNAFDYWGQGTLVTVSSGGGGSGGGGSGGGGSTDIQMTQSPSSLSASVGDRVTITCRASQSISSYLNWYQQKPGKAPKLLIYNASALQSGVPSRFSGSGSGTDFTLTISSLQPEDFATYYCQQYTSTPRTFGQGTKVEIKR
notes: also called ICAb I21
**Q.** Does B1 bind [1]?
**A.** no binding

**Q.** And the Kd [2]?
**A.** 1310 nM

**Q.** What about the koff [2] of the same binder?
**A.** 0.0212 s⁻¹

**Q.** What about the kon [2] of the same binder?
**A.** 16700 M⁻¹ s⁻¹

**Q.** And the Kd [3]?
**A.** 2160 nM
